Data on 42 molecules can be found in patent publication US20250026849A1 (ARCELLX, published 2025).

The chains are these.
T1: BCMA (Homo sapiens (Human), UniProt Q02223 1-54, limits assumed)
T1 sequence: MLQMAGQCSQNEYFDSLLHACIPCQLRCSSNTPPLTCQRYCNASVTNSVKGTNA

B1: D-domain SEQ ID NO: 176 (designed binder)
chain: MGSWYEFDTRLGAIRNRLGALGGSEAELAAFEKEIAAFESELQAYKGKGNPEVEWLRFQAAYIRFLLQAYRHN
B2: D-domain SEQ ID NO: 177 (designed binder)
chain: MGSWYEFWVRLTAIRWRLEALGGSEAELAAFEKEIAAFESELQAYKGKGNPEVEWLREQAASIRWVLQAYRHN
B3: D-domain SEQ ID NO: 230 (designed binder)
chain: MGSWNEFYQRLEAIENRLQALGGSEAELAMFEVRIALFEDMLQGYKGKGNPEVEALKQEAIAILRELIAYRHN
B4: D-domain SEQ ID NO: 228 (designed binder)
chain: MGSWGEFEHRLDPSTCVWLALGGSEAELAAFEKEIAAFESELQAYKGKGNPEVEKLRRGAAVIRHWLQAYRHN
B5: D-domain SEQ ID NO: 181 (designed binder)
chain: MGSWAEFDLRLRAIAKRLVALGGSEAELAAFEKEIAAFESELQAYKGKGNPEVEMLRLDAAYIRGVLQAYRHN
B6: D-domain SEQ ID NO: 229 (designed binder)
chain: MGSWIEFAMRLEAIENRLTALGGSEAELAIFESMIAHFEELLQNYKGKGNPEVEALIHEAFAIHKELWAYRHN
B7: D-domain SEQ ID NO: 173 (designed binder)
chain: MGSWYEFWLRLSAISYRLQALGGSEAELAAFEKEIAAFESELQAYKGKGNPEVEWLRKEAAEIRSWLQAYRHN
B8: D-domain SEQ ID NO: 174 (designed binder)
chain: MGSWYEFQLRLWAIHWRLIALGGSEAELAAFEKEIAAFESELQAYKGKGNPEVEWLRMRAAEIRNELQAYRHN
B9: D-domain SEQ ID NO: 213 (designed binder)
chain: MGSWYEFWKRLYAIEYRLFALGGSEAELAAFEKEIAAFESELQAYKGKGNPEVEALRKVAAKIREQLQAYRHN
B10: D-domain SEQ ID NO: 182 (designed binder)
chain: MGSWSEFWDRLYAIRIRLDALGGSEAELAAFEKEIAAFESELQAYKGKGNPEVEKLRSVAARIRNWLQAYRHN
B11: D-domain SEQ ID NO: 183 (designed binder)
chain: MGSWSEFWFRLGAIRNRLDALGGSEAELAAFEKEIAAFESELQAYKGKGNPEVEKLRDVAAHIRHWLQAYRHN
B12: D-domain SEQ ID NO: 215 (designed binder)
chain: MGSWHEFWDRLYAIEFRLFALGGSEAELAAFEKEIAAFESELQAYKGKGNPEVESLRQVAAKIRWHLQAYRHN
B13: D-domain SEQ ID NO: 211 (designed binder)
chain: MGSWTEFWERLYAIEYRLFALGGSEAELAAFEKEIAAFESELQAYKGKGNPEVEKLRSVAATIRYELQAYRHN
B14: D-domain SEQ ID NO: 184 (designed binder)
chain: MGSWSEFNDRLDAIRWRLDALGGSEAELAAFEKEIAAFESELQAYKGKGNPEVEWLRQVAATIRYRLQAYRHN
B15: D-domain SEQ ID NO: 210 (designed binder)
chain: MGSWMEFWDRLYAIEFRLFALGGSEAELAAFEKEIAAFESELQAYKGKGNPEVEKLRRVAATIRNELQAYRHN
B16: D-domain SEQ ID NO: 212 (designed binder)
chain: MGSWNEFWERLYAIELRLFALGGSEAELAAFEKEIAAFESELQAYKGKGNPEVEKLRMTAAYIRNELQAYRHN
B17: D-domain SEQ ID NO: 172 (designed binder)
chain: MGSWNEFRLRLWAITERLRALGGSEAELAAFEKEIAAFESELQAYKGKGNPEVECLRAEAAWIRTMLQAYRHN
B18: D-domain SEQ ID NO: 178 (designed binder)
chain: MGSWFEFDRRLKAIDRRLMALGGSEAELAAFEKEIAAFESELQAYKGKGNPEVEWLRMQAAIIRNYLQAYRHN
B19: D-domain SEQ ID NO: 231 (designed binder)
chain: MGSWNEFYDRLRAIKKRLYALGGSEAELADFEEDIAQFEVDLQDYKGKGNPEVEALHREAHAITHELWAYRHN
B20: D-domain SEQ ID NO: 171 (designed binder)
chain: MGSWIEFHQRLNAIFNRLRALGGSEAELAAFEKEIAAFESELQAYKGKGNPEVEWLRHHAAYIREMLQAYRHN
B21: D-domain SEQ ID NO: 179 (designed binder)
chain: MGSWVEFWERLDAIDNRLGALGGSEAELAAFEKEIAAFESELQAYKGKGNPEVEWLRWHAAYIRGYLQAYRHN
B22: D-domain SEQ ID NO: 180 (designed binder)
chain: MGSWAEFWDRLDAIDSRLNALGGSEAELAAFEKEIAAFESELQAYKGKGNPEVEYLREWAAYIRGYLQAYRHN
B23: D-domain SEQ ID NO: 226 (designed binder)
chain: MGSWYEFVTRLHAIDHRLKALGGSEADLAAFEKEIAAFESELQAYKGKGNPEVEWLRFYAAGIRMNLQAYRHN
B24: D-domain SEQ ID NO: 175 (designed binder)
chain: MGSWYEFAHRLEAIEWRLIALGGSEAELAAFEKEIAAFESELQAYKGKGNPEVEELRQYAAAIRNYLQAYRHN
B25: D-domain SEQ ID NO: 203 (designed binder)
chain: MGSWTEFWTRLNAIYERLDALGGSEAELAAFEKEIAAFESELQAYKGKGNPEVEKLRFTAASIRMYLQAYRHN
B26: D-domain SEQ ID NO: 227 (designed binder)
chain: MGSWSIEFWRLEAIKFRLIALGGSEAELAAFEKEIAAFESELQAYKGKGNPEVEFLRVEAAAIRRVLQAYRHN
B27: D-domain SEQ ID NO: 216 (designed binder)
chain: MGSWDEFEFRLGALRWRLIALGGSEAELAAFEKEIAAFESELQAYKGKGNPEVEYLRFGAAHIRHILQAYRHN
B28: D-domain SEQ ID NO: 217 (designed binder)
chain: MGSWTEFYHRLYAIRERLSALGGSEAELAAFEKEIAAFESELQAYKGKGNPEVEYLRFGAAHIRHLLQAYRHN
B29: D-domain SEQ ID NO: 218 (designed binder)
chain: MGSWVEFETRLDAIRMRLGALGGSEAELAAFEKEIAAFESELQAYKGKGNPEVEYLRFGAAHIRALLQAYRHN
B30: D-domain SEQ ID NO: 219 (designed binder)
chain: MGSWGEFDVRLFAIRERLSALGGSEAELAAFEKEIAAFESELQAYKGKGNPEVEYLRGYAAQIRSFLQAYRHN
B31: D-domain SEQ ID NO: 223 (designed binder)
chain: MGSWGEFNGRLGAIRERLQALGGSEAELAAFEKEIAAFESELQAYKGKGNPEVEFLRAYAASIRAVLQAYRHN
B32: D-domain SEQ ID NO: 221 (designed binder)
chain: MGSWSEFDGRLGAIWDRLYALGGSEAELAAFEKEIAAFESELQAYKGKGNPEVEYLRDRAAQIREFLQAYRHN
B33: D-domain SEQ ID NO: 222 (designed binder)
chain: MGSWGEFEGRLHAIRSRLSALGGSEAELAAFEKEIAAFESELQAYKGKGNPEVEVLRGYAAWIRALLQAYRHN
B34: D-domain SEQ ID NO: 220 (designed binder)
chain: MGSWVEFDERLSAIRERLDALGGSEAELAAFEKEIAAFESELQAYKGKGNPEVEYLRLYAAQIRVFLQAYRHN
B35: D-domain SEQ ID NO: 232 (designed binder)
chain: MGSWGEFKHRLALIKWYLEALGGSEAELAHFEDWIAVFEVQLQNYKGKGNPEVEALRKEAAAIRDELQAYRHN
B36: D-domain SEQ ID NO: 233 (designed binder)
chain: MGSWYEFKHRLAIIKWYLEALGGSEAELAKFEAWIAEFEMILQRYKGKGNPEVEALRKEAAAIRDELQAYRHN
B37: D-domain SEQ ID NO: 237 (designed binder)
chain: MGSWYNFKHRLAIIKWFLEALGGSEAELAVFEVWIADFEHQLQEYKGKGNPEVEALRKEAAAIRDELQAYRHN
B38: D-domain SEQ ID NO: 236 (designed binder)
chain: MGSWFQFKHRLAIIKWQLEALGGSEAELAWFEQWIADFEHQLQHYKGKGNPEVEALRKEAAAIRDELQAYRHN
B39: D-domain SEQ ID NO: 234 (designed binder)
chain: MGSWYEFKHRLAIIKWYLEALGGSEAELAHFEQYIADFEGTLQKYKGKGNPEVEALRKEAAAIRDELQAYRHN
B40: D-domain SEQ ID NO: 235 (designed binder)
chain: MGSWYNFKHRLAIIKWYLEALGGSEAELARFENFIANFETQLQLYKGKGNPEVEALRKEAAAIRDELQAYRHN
B41: D-domain SEQ ID NO: 224 (designed binder)
chain: MGSWWEFTFRLAAIEFRLEALGGSEAELAAFEKEIAAFESELQAYKGKGNPEVEDLRAIAAEIRKSLQAYRHN
B42: D-domain SEQ ID NO: 225 (designed binder)
chain: MGSWDEFQFRLAAIGFRLGALGGSEAELAAFEKEIAAFESELQAYKGKGNPEVEVLRRQAARIRHLLQAYRHN

This assay concerns the target T1, BCMA. Put plainly: ELISA, format not described. Also noted: unit not given here. Background: ELISA stands for enzyme-linked immunosorbent assay.
Turning to B1, the ELISA_avg is 13.9.
Then B2, with 5.72; and B3, with 6.01; and B4, with 4.05.
Consider B5, for which the ELISA_avg came to 4.09.
Regarding B6, the ELISA_avg turned out to be 10.7.
For B7 the value was 14.5; for B8, 20.6; for B9, 14.8.
On to B10, for which the ELISA_avg was determined as 12.5.
Then B11, with 14.9; and B12, with 7.3.
For B13 the value was 12.7; for B14, 13.6.
Then B15, with 11.7; and B16, with 9.95; and B17, with 3.87.
B18: the ELISA_avg was found to be 6.16.
For B19 the value was 12.4; for B20, 7.34.
For B21, the ELISA_avg worked out at 11.4.
Then B22, with 18.2; and B23, with 4.12; and B24, with 9.48.
Then B25, with 8.43; and B26, with 8.43.
Take B27: the ELISA_avg came out at 9.2.
Then B28, with 9.63.
With B29, the ELISA_avg was found to be 14.1.
For B30 the value was 7.35; for B31, 4.95; for B32, 10.
Then B33, with 6.17.
Then B34, with 5.61.
Molecule B35 had an ELISA_avg of 17.1.
For B36 the value was 5.5; for B37, 16.4.
Regarding B38, the ELISA_avg amounted to 10.4.
Then B39, with 14.8.
For B40 the value was 6.76; for B41, 5.75.
Then B42, with 6.16.
